From the supplement of paper PMC11246515
± gives the standard deviation of the averaged measurements.

Assay: total protein half-life in vivo (active degradation + dilution); higher = more stable protein
[1] = E. coli NCM3722 delta-clpP delta-lon delta-hslV, growth: N-lim chemostat, doubling time 6 h
[2] = E. coli NCM3722 delta-clpP, growth: N-lim chemostat, doubling time 6 h
[3] = E. coli NCM3722 delta-hslV, growth: N-lim chemostat, doubling time 6 h
[4] = E. coli NCM3722 delta-lon, growth: N-lim chemostat, doubling time 6 h
[5] = E. coli NCM3722 delta-smpB, growth: N-lim chemostat, doubling time 6 h
[6] = wild type E. coli NCM3722, growth: C-lim chemostat, doubling time 3 h
[7] = wild type E. coli NCM3722, growth: C-lim chemostat, doubling time 6 h
[8] = wild type E. coli NCM3722, growth: C-lim chemostat, doubling time 12 h
[9] = wild type E. coli NCM3722, growth: N-lim chemostat, doubling time 6 h
[10] = wild type E. coli NCM3722, growth: N-lim chemostat, doubling time 12 h
[11] = wild type E. coli NCM3722, growth: P-lim chemostat, doubling time 6 h
[12] = wild type E. coli NCM3722, growth: P-lim chemostat, doubling time 12 h

| Sequence | total protein half-life in vivo [1] [h] | total protein half-life in vivo [2] [h] | total protein half-life in vivo [3] [h] | total protein half-life in vivo [4] [h] | total protein half-life in vivo [5] [h] | total protein half-life in vivo [6] [h] | total protein half-life in vivo [7] [h] | total protein half-life in vivo [8] [h] | total protein half-life in vivo [9] [h] | total protein half-life in vivo [10] [h] | total protein half-life in vivo [11] [h] | total protein half-life in vivo [12] [h] |
| --- | --- | --- | --- | --- | --- | --- | --- | --- | --- | --- | --- | --- |
| MTTNYIFVTGGVVSSLGKGIAAASLAAILEARGLNVTIMKLDPYINVDPGTMSPIQHGEVFVTEDGAETDLDLGHYERFIRTKMSRRNNFTTGRIYSDVLRKERRGDYLGATVQVIPHITNAIKERVLEGGEGHDVVLVEIGGTVGDIESLPFLEAIRQMAVEIGREHTLFMHLTLVPYMAASGEVKTKPTQHSVKELLSIGIQPDILICRSDRAVPANERAKIALFCNVPEKAVISLKDVDSIYKIPGLLKSQGLDDYICKRFSLNCPEANLSEWEQVIFEEANPVSEVTIGMVGKYIELPDAYKSVIEALKHGGLKNRVSVNIKLIDSQDVETRGVEILKGLDAILVPGGFGYRGVEGMITTARFARENNIPYLGICLGMQVALIDYARHVANMENANSTEFVPDCKYPVVALITEWRDENGNVEVRSEKSDLGGTMRLGAQQCQLVDDSLVRQLYNAPTIVERHRHRYEVNNMLLKQIEDAGLRVAGRSGDDQLVEIIEVPNHPWFVACQFHPEFTSTPRDGHPLFAGFVKAASEFQKRQAK [P0A7E5] | 6.37 ± 0.47 | 5.64 ± 0.39 | 5.16 ± 0.13 | 5.75 ± 0.15 | 5.11 ± 0.71 | 3.06 ± 0.25 | 6.11 ± 0.39 | 12.3 ± 1.2 | 5.2 ± 0.22 | 9.4 ± 0.35 | 6.161 ± 0.058 | 13.1 ± 0.8 |
| MTTQLEQAWELAKQRFAAVGIDVEEALRQLDRLPVSMHCWQGDDVSGFENPEGSLTGGIQATGNYPGKARNASELRADLEQAMRLIPGPKRLNLHAIYLESDTPVSRDQIKPEHFKNWVEWAKANQLGLDFNPSCFSHPLSADGFTLSHADDSIRQFWIDHCKASRRVSAYFGEQLGTPSVMNIWIPDGMKDITVDRLAPRQRLLAALDEVISEKLNPAHHIDAVESKLFGIGAESYTVGSNEFYMGYATSRQTALCLDAGHFHPTEVISDKISAAMLYVPQLLLHVSRPVRWDSDHVVLLDDETQAIASEIVRHDLFDRVHIGLDFFDASINRIAAWVIGTRNMKKALLRALLEPTAELRKLEAAGDYTARLALLEEQKSLPWQAVWEMYCQRHDTPAGSEWLESVRAYEKEILSRRG | 3.97 ± 0.74 | 2.97 ± 0.12 |  | 3.14 ± 0.07 | 2.94 ± 0.21 |  | 5.85 ± 1.9 | 9.47 |  | 3.73 | 5.31 ± 0.18 | 8.02 ± 5 |
| MTTRVIALDLDGTLLTPKKTLLPSSIEALARAREAGYQLIIVTGRHHVAIHPFYQALALDTPAICCNGTYLYDYHAKTVLEADPMPVIKALQLIEMLNEHHIHGLMYVDDAMVYEHPTGHVIRTSNWAQTLPPEQRPTFTQVASLAETAQQVNAVWKFALTHDDLPQLQHFGKHVEHELGLECEWSWHDQVDIARGGNSKGKRLTKWVEAQGWSMENVVAFGDNFNDISMLEAAGTGVAMGNADDAVKARANIVIGDNTTDSIAQFIYSHLI | 5.16 ± 0.18 | 0.903 ± 0.047 | 0.971 ± 0.12 | 1.19 ± 0.11 | 1.09 ± 0.013 | 2.05 ± 0.096 | 3.48 ± 1.5 | 3.08 ± 0.64 | 1.05 ± 0.02 | 1.52 ± 0.12 | 3 ± 0.29 | 4.84 ± 0.26 |
| MTVKQTVEITNKLGMHARPAMKLFELMQGFDAEVLLRNDEGTEAEANSVIALLMLDSAKGRQIEVEATGPQEEEALAAVIALFNSGFDED [P0A9N0] | 4.886 ± 0.034 | 2.96 | 2.41 | 2.28 | 2.09 | 2.15 ± 0.18 | 3.27 ± 0.19 | 4.27 | 2.7 | 3.97 ± 0.24 | 2.35 | 4.46 ± 0.45 |
| MTVQDYLLKFRKISSLESLEKLYDHLNYTLTDDQELINMYRAADHRRAELVSGGRLFDLGQVPKSVWHYVQ | 6.59 ± 0.11 |  |  | 5.67 ± 0.55 | 4.11 ± 0.46 |  |  |  | 3.59 | 6.7 | 2.63 | 6.54 ± 0.37 |
| MTVRVAINGFGRIGRNVVRALYESGRRAEITVVAINELADAAGMAHLLKYDTSHGRFAWEVRQERDQLFVGDDAIRVLHERSLQSLPWRELGVDVVLDCTGVYGSREHGEAHIAAGAKKVLFSHPGSNDLDATVVYGVNQDQLRAEHRIVSNASCTTNCIIPVIKLLDDAYGIESGTVTTIHSAMHDQQVIDAYHPDLRRTRAASQSIIPVDTKLAAGITRFFPQFNDRFEAIAVRVPTINVTAIDLSVTVKKPVKANEVNLLLQKAAQGAFHGIVDYTELPLVSVDFNHDPHSAIVDGTQTRVSGAHLIKTLVWCDNEWGFANRMLDTTLAMATVAFR [P0A9B6] | 4.55 ± 0.44 | 5.54 ± 2.7 | 4.07 ± 1.2 | 4.77 ± 1.6 | 3.65 ± 0.18 | 2.85 ± 0.086 | 5.08 ± 0.25 | 8.49 ± 0.63 | 3.49 ± 0.19 | 5.94 ± 0.99 | 5.48 ± 0.15 | 10 ± 0.75 |
| MVDKSQETTHFGFQTVAKEQKADMVAHVFHSVASKYDVMNDLMSFGIHRLWKRFTIDCSGVRRGQTVLDLAGGTGDLTAKFSRLVGETGKVVLADINESMLKMGREKLRNIGVIGNVEYVQANAEALPFPDNTFDCITISFGLRNVTDKDKALRSMYRVLKPGGRLLVLEFSKPIIEPLSKAYDAYSFHVLPRIGSLVANDADSYRYLAESIRMHPDQDTLKAMMQDAGFESVDYYNLTAGVVALHRGYKF [P0A887] | 5.402 ± 0.0099 | 4.951 ± 0.013 | 4.18 ± 0.12 | 4.9 ± 0.36 | 4.19 ± 0.076 | 2.405 ± 0.0086 | 4.67 ± 0.086 | 7.96 ± 0.38 | 4.36 ± 0.36 | 8.27 ± 1.5 | 4.45 ± 0.31 | 8.773 ± 0.069 |
| MVDQAQDTLRPNNRLSDMQATMEQTQAFENRVLERLNAGKTVRSFLITAVELLTEAVNLLVLQVFRKDDYAVKYAVEPLLDGDGPLGDLSVRLKLIYGLGVINRQEYEDAELLMALREELNHDGNEYAFTDDEILGPFGELHCVAALPPPPQFEPADSSLYAMQIQRYQQAVRSTMVLSLTELISKISLKKAFQK [P0AF10] | 4.34 ± 0.54 |  |  | 4.01 | 3.44 | 2.48 ± 0.33 | 4.42 ± 0.24 | 12.5 ± 1.4 | 3.54 | 5.95 ± 0.25 | 4.55 | 12.2 ± 2 |
